Data taken from doi:10.1101/2022.10.10.511578 (bioRxiv, 2022).
No end group written: not given here.

T1: arrestin2^1-393 (human)
T1 chain: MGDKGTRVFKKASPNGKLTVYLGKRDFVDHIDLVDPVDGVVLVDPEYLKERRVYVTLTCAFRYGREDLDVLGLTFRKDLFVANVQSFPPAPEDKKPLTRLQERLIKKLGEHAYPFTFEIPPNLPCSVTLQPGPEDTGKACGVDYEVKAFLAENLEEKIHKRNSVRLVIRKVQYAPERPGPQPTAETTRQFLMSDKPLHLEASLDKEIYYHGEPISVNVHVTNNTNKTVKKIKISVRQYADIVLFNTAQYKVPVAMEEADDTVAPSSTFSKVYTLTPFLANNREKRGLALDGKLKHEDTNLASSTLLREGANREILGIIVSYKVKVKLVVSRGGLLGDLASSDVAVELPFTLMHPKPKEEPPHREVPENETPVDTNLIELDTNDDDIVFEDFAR

T2: arrestin2^1-359 (human)
T2 chain: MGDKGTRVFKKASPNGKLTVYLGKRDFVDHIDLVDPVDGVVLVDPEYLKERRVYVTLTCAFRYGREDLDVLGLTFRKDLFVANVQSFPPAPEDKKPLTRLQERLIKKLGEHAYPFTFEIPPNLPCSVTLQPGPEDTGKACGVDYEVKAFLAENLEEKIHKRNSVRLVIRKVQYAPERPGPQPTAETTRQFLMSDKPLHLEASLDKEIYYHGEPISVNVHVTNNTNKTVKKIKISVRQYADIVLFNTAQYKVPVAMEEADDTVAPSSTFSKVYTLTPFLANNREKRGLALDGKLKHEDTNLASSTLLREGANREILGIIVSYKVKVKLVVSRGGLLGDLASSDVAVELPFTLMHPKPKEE

T3: arrestin2^1-418 (C150L, C242V, C251V, C269S) (human)
T3 chain: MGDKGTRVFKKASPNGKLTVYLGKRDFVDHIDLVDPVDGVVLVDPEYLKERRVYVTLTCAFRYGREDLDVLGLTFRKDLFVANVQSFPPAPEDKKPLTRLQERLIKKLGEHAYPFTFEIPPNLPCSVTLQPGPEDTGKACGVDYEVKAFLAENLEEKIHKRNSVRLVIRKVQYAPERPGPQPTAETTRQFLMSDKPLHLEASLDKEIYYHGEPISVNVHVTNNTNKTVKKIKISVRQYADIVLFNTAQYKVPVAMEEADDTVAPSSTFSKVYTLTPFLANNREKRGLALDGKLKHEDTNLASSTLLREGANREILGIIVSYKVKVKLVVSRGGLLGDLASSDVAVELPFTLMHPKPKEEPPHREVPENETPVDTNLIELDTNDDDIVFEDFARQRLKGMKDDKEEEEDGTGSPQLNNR

B1: CCR5 6P phosphopeptide (peptide)
peptide: APERASSVYTRSTGEQEISVGL
modifications: also: phosphopeptide (6P), sites not given here
B2: CCR5 3P2 phosphopeptide (peptide)
peptide: APERASSVYTRSTGEQEISVGL
modifications: also: phosphopeptide (3P2), sites not given here
B3: CCR5 4P phosphopeptide (peptide)
peptide: APERASSVYTRSTGEQEISVGL
modifications: also: phosphopeptide (4P), sites not given here
B4: CCR5 5P1 phosphopeptide (peptide)
peptide: APERASSVYTRSTGEQEISVGL
modifications: also: five-fold phosphorylated, lacking pT343, sites not given here
B5: CCR5 5P2 phosphopeptide (peptide)
peptide: APERASSVYTRSTGEQEISVGL
modifications: not fully specified; five-fold phosphorylated; comprising pT343; whole pattern in Figure 1C
B6: CCR5 3P1 phosphopeptide (peptide)
peptide: APERASSVYTRSTGEQEISVGL
modifications: also: three-fold phosphorylated, sites not given here

Assays:
arrestin2^1-393 = molecular target: T1, arrestin2^1-393; experiment: NMR titration
arrestin2^1-359 = molecular target: T2, arrestin2^1-359; experiment: crystal structure
[1] = molecular target: T3, arrestin2^1-418 (C150L, C242V, C251V, …); experiment: SEC

Binder | Kd (arrestin2^1-393) [µM] | binding result (arrestin2^1-359) | binding result [1] | fold lower affinity (than 6P or V2Rpp) (arrestin2^1-393) [fold]
B1 | 45 ± 6 | binds | binds | –
B2 | > 100 | – | binds | > 4
B3 | > 100 | binds | – | –
B4 | 147 ± 7 | – | – | –
B5 | 54 ± 6 | – | – | –
B6 | > 100 | – | – | –
